This assay deals with SARS-CoV-2 Spike protein (S protein) (SARS-CoV-2) (UniProt P0DTC2). As to the kind of experiment: ELISA. In general terms: ELISA stands for enzyme-linked immunosorbent assay.

Sequence of recombinant fragment of human surfactant protein D (rfhSP-D) (P35247 201-375): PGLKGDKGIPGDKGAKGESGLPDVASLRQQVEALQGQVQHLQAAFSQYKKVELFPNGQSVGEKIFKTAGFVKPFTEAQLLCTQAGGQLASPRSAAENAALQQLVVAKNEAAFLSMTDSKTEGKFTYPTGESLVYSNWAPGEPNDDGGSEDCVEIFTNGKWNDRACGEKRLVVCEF

For the substance “recombinant fragment of human surfactant protein D (rfhSP-D) (from UniProt P35247 201-375) (domain or fragment)”, the percent decrease of S protein-hACE-2 binding (rfhSP-D increased 5-fold) was 50%.

For the origin of these results see doi:10.1101/2020.12.18.423415.
